Results published in PMC11643744, “New Conjugates of Vancomycin with Cell-Penetrating Peptides—Synthesis, Antimicrobial Activity, Cytotoxicity, and BBB Permeability Studies” (Molecules, 2024).
Peptide text beside a SMILES is read from it. * marks the point of attachment. Propioloyl = C#CC(=O)*

Legend:
PAMPA-BBB assay = experiment: PAMPA-BBB assay
Source text: This assay utilized a 96-well plate assembly consisting of a filter plate pre-coated with polar brain lipids (donor plate) and a receiver plate (acceptor plate). The phospholipid mixture used to coat the membrane was extracted from porcine polar brain lipids, with the following composition: 12.6% phosphatidylcholine, 33.1% phosphatidylethanolamine, 18.5% phosphatidylserine, 4.1% phosphatidylinositol, 0.8% phosphatidic acid, and 30.9% of other compounds, including cerebrosides, sulfatides, and pigments.
In each well of the donor filtration plate (Multiscreen Filter Plate, PVDF with a pore size of 0.45 µm), 5 µL of the phospholipid mixture in n-dodecane (20 mg/mL) was carefully applied to form the artificial membrane. After coating, 200 µL of phosphate-buffered saline (PBS at pH 7.4) containing 5% dimethyl sulfoxide (DMSO) as a co-solvent, and the test compound (at a concentration of 20 µM) was added to each well of the donor plate (in triplicate). […] The plate lid was then replaced and the resulting assembled donor–acceptor plates were incubated at room temperature for 20 h. After this time, the donor plate was removed and solutions from each well of both acceptor and donor plates were collected for further analysis. The concentrations of the tested compounds were determined by LC-MS. The analysis was conducted by UHPLC-MS system (Shimadzu Nexera X2 with LCMS-2020 detector) using a ReproSil Pure 120 ODS-3 column (Dr. Maisch GmbH, 100 × 2 mm, 2.4 µm particle size) with several gradients of ACN with 0.1% FA and 0.05% TFA at a flow rate of 0.3 mL/min. The eluted solution was monitored by an ESI-MS detector operated in a selected ion monitoring mode (SIM). […] CE=CD×VD+CA×VA/VD+VA

[1] = tested on: normal human fibroblasts, BJ line (CRL-2522); experiment: Neutral red cytotoxicity assay
Procedure: Normal human fibroblasts, BJ line (CRL-2522™), Eagle’s Minimum Essential Medium (EMEM), and fetal bovine serum (FBS) were obtained from ATCC (Manassas, VA, USA). Cells were grown following ATCC guidelines in an EMEM medium supplemented with 10% FBS at 37 °C in a humidified atmosphere of 95% air and 5% CO2 in a HeraCell 150 incubator (Heraeus, Hanau, Germany).
The assay was performed as per previously published protocols with slight modifications. In brief, BJ cells were plated in 96-well tissue culture plates (Nest Scientific Biotechnology, Wuxi, China) at a density of 6 × 10^3 cells per well and allowed to attach for 24 h in EMEM supplemented with 10% FBS. After the incubation period, the medium was removed, and 10% dimethyl sulfoxide (DMSO)-treated cells (Sigma-Aldrich, St. Louis, MO, USA) were used as a positive control, while nontreated cells served as a negative control.
The cells were treated with peptides suspended in EMEM medium supplemented with 10% FBS and incubated for 24 h at 37 °C in a humidified atmosphere of 95% air and 5% CO2. After the incubation, the supernatants were discarded and replaced with 100 µL of non-supplemented EMEM containing 0.33% neutral red (Sigma-Aldrich) diluted 1:40. The cells were incubated for an additional 2 h at 37 °C. Following incubation, the neutral red medium was removed, and the cells were washed with 100 µL of phosphate-buffered saline (PBS) per well.
To extract the dye into the solution, the cells were treated with 150 µL of a solution containing 50% ethanol (Alchem, Torun, Poland), 49% distilled H2O, and 1% acetic acid (Alchem, Torun, Poland) and incubated under shaking at 37 °C for 10 min. Absorbance was measured at 540 nm using a Synergy H1 plate reader (BioTek Instruments, Winooski, VT, USA). The assay was performed in triplicate to ensure reproducibility.

[2] = pig, PAMPA, pH 7.4, Pe, effective permeability coefficient, 20 h incubation, 20 µM, pH 7.4, mean ± SEM

| SMILES | R, mass retention (PAMPA-BBB assay; 20 h incubation, mean ± SEM) [%] | further results |
| --- | --- | --- |
| C#CC(=O)N[C@@H](Cc1ccc(O)cc1)C(=O)N[C@@H](C)C(=O)N[C@@H](CCCNC(=N)N)C(=O)N[C@@H](C)C(=O)N[C@@H](C)C(=O)N[C@@H](C)C(=O)N[C@@H](CCCNC(=N)N)C(=O)N[C@@H](CCC(N)=O)C(=O)N[C@@H](C)C(=O)N[C@@H](CCCNC(=N)N)C(=O)N[C@@H](C)C(N)=O [compound 9] (Propioloyl-YARAAARQARA-NH2) | 6.7 ± 1.5 |  |
| CN[C@H](CC(C)C)C(=O)N[C@H]1C(=O)N[C@@H](CC(N)=O)C(=O)N[C@H]2C(=O)N[C@H]3C(=O)N[C@H](C(=O)N[C@H](C(=O)NCCOCCOCCOCCn4cc(C(=O)N[C@@H](Cc5ccc(O)cc5)C(=O)NCC(=O)N[C@@H](CCCNC(=N)N)C(=O)N[C@@H](CCCCN)C(=O)N[C@@H](CCCCN)C(=O)N[C@@H](CCCNC(=N)N)C(=O)N[C@@H](CCCNC(=N)N)C(=O)N[C@@H](CCC(N)=O)C(=O)N[C@@H](CCCNC(=N)N)C(=O)N[C@@H](CCCNC(=N)N)C(=O)N[C@@H](CCCNC(=N)N)C(N)=O)nn4)c4cc(O)cc(O)c4-c4cc3ccc4O)[C@H](O)c3ccc(c(Cl)c3)Oc3cc2cc(c3O[C@@H]2O[C@H](CO)[C@@H](O)[C@H](O)[C@H]2O[C@H]2C[C@](C)(N)[C@H](O)[C@H](C)O2)Oc2ccc(cc2Cl)[C@H]1O [compound 5] | 8.7 ± 3.8 |  |
| CN[C@H](CC(C)C)C(=O)N[C@H]1C(=O)N[C@@H](CC(N)=O)C(=O)N[C@H]2C(=O)N[C@H]3C(=O)N[C@H](C(=O)N[C@H](C(=O)NCCSSCCn4cc(C(=O)N[C@@H](Cc5ccc(O)cc5)C(=O)N[C@@H](C)C(=O)N[C@@H](CCCNC(=N)N)C(=O)N[C@@H](C)C(=O)N[C@@H](C)C(=O)N[C@@H](C)C(=O)N[C@@H](CCCNC(=N)N)C(=O)N[C@@H](CCC(N)=O)C(=O)N[C@@H](C)C(=O)N[C@@H](CCCNC(=N)N)C(=O)N[C@@H](C)C(N)=O)nn4)c4cc(O)cc(O)c4-c4cc3ccc4O)[C@H](O)c3ccc(c(Cl)c3)Oc3cc2cc(c3O[C@@H]2O[C@H](CO)[C@@H](O)[C@H](O)[C@H]2O[C@H]2C[C@](C)(N)[C@H](O)[C@H](C)O2)Oc2ccc(cc2Cl)[C@H]1O [compound 12] | 12.7 ± 2.2 | effect on cell viability ([1]; across the tested concentration range, 24 h): did not significantly affect cell viability; Papp at 20 h, 20 µM (PAMPA-BBB assay; [2]): 0.036 ± 0.004 ×10⁻⁶ cm/s |
| CN[C@H](CC(C)C)C(=O)N[C@H]1C(=O)N[C@@H](CC(N)=O)C(=O)N[C@H]2C(=O)N[C@H]3C(=O)N[C@H](C(=O)N[C@H](C(=O)O)c4cc(O)cc(O)c4-c4cc3ccc4O)[C@H](O)c3ccc(c(Cl)c3)Oc3cc2cc(c3O[C@@H]2O[C@H](CO)[C@@H](O)[C@H](O)[C@H]2O[C@H]2C[C@](C)(NC(=O)CCOCCOCCOCCOCCn3cc(C(=O)N[C@@H](Cc4ccc(O)cc4)C(=O)NCC(=O)N[C@@H](CCCNC(=N)N)C(=O)N[C@@H](CCCCN)C(=O)N[C@@H](CCCCN)C(=O)N[C@@H](CCCNC(=N)N)C(=O)N[C@@H](CCCNC(=N)N)C(=O)N[C@@H](CCC(N)=O)C(=O)N[C@@H](CCCNC(=N)N)C(=O)N[C@@H](CCCNC(=N)N)C(=O)N[C@@H](CCCNC(=N)N)C(N)=O)nn3)[C@H](O)[C@H](C)O2)Oc2ccc(cc2Cl)[C@H]1O [compound 6] | 77.7 ± 0.3 |  |
| CN[C@H](CC(C)C)C(=O)N[C@H]1C(=O)N[C@@H](CC(N)=O)C(=O)N[C@H]2C(=O)N[C@H]3C(=O)N[C@H](C(=O)N[C@H](C(=O)O)c4cc(O)cc(O)c4-c4cc3ccc4O)[C@H](O)c3ccc(c(Cl)c3)Oc3cc2cc(c3O[C@@H]2O[C@H](CO)[C@@H](O)[C@H](O)[C@H]2O[C@H]2C[C@](C)(NC(=O)CCC(=O)NCCSSCCn3cc(C(=O)N[C@@H](Cc4ccc(O)cc4)C(=O)NCC(=O)N[C@@H](CCCNC(=N)N)C(=O)N[C@@H](CCCCN)C(=O)N[C@@H](CCCCN)C(=O)N[C@@H](CCCNC(=N)N)C(=O)N[C@@H](CCCNC(=N)N)C(=O)N[C@@H](CCC(N)=O)C(=O)N[C@@H](CCCNC(=N)N)C(=O)N[C@@H](CCCNC(=N)N)C(=O)N[C@@H](CCCNC(=N)N)C(N)=O)nn3)[C@H](O)[C@H](C)O2)Oc2ccc(cc2Cl)[C@H]1O [compound 8] | 31.5 ± 1.5 |  |
| CN[C@H](CC(C)C)C(=O)N[C@H]1C(=O)N[C@@H](CC(N)=O)C(=O)N[C@H]2C(=O)N[C@H]3C(=O)N[C@H](C(=O)N[C@H](C(=O)NCCOCCOCCOCCn4cc(C(=O)N[C@@H](CCCNC(=N)N)C(=O)N[C@@H](CCCNC(=N)N)C(=O)N[C@@H](CCCNC(=N)N)C(=O)N[C@@H](CCCNC(=N)N)C(=O)N[C@@H](CCCNC(=N)N)C(=O)N[C@@H](CCCNC(=N)N)C(=O)N[C@@H](CCCNC(=N)N)C(=O)N[C@@H](CCCNC(=N)N)C(=O)N[C@@H](CCCNC(=N)N)C(N)=O)nn4)c4cc(O)cc(O)c4-c4cc3ccc4O)[C@H](O)c3ccc(c(Cl)c3)Oc3cc2cc(c3O[C@@H]2O[C@H](CO)[C@@H](O)[C@H](O)[C@H]2O[C@H]2C[C@](C)(N)[C@H](O)[C@H](C)O2)Oc2ccc(cc2Cl)[C@H]1O [compound 15] | 2.7 ± 0.9 |  |
| O=C(O)Cc1ccccc1Nc1c(Cl)cccc1Cl [Diclofenac, reference compound] |  | R, mass retention (PAMPA-BBB assay; PAMPA, 20 h, 20 µM, pH 7.4): 12.0 ± 3.3%; Papp at 20 h, 20 µM (PAMPA-BBB assay; PAMPA, pH 7.4): 3.44 ± 0.1 ×10⁻⁶ cm/s |
| CN[C@H](CC(C)C)C(=O)N[C@H]1C(=O)N[C@@H](CC(N)=O)C(=O)N[C@H]2C(=O)N[C@H]3C(=O)N[C@H](C(=O)N[C@H](C(=O)O)c4cc(O)cc(O)c4-c4cc3ccc4O)[C@H](O)c3ccc(c(Cl)c3)Oc3cc2cc(c3O[C@@H]2O[C@H](CO)[C@@H](O)[C@H](O)[C@H]2O[C@H]2C[C@](C)(NC(=O)CCOCCOCCOCCOCCn3cc(C(=O)N[C@@H](Cc4ccc(O)cc4)C(=O)N[C@@H](C)C(=O)N[C@@H](CCCNC(=N)N)C(=O)N[C@@H](C)C(=O)N[C@@H](C)C(=O)N[C@@H](C)C(=O)N[C@@H](CCCNC(=N)N)C(=O)N[C@@H](CCC(N)=O)C(=O)N[C@@H](C)C(=O)N[C@@H](CCCNC(=N)N)C(=O)N[C@@H](C)C(N)=O)nn3)[C@H](O)[C@H](C)O2)Oc2ccc(cc2Cl)[C@H]1O [compound 11] | 32.7 ± 0.9 | concentration above which cytotoxicity was shown ([1]; 24 h): > 64 µg/mL; Papp at 20 h, 20 µM (PAMPA-BBB assay; [2]): 0.066 ± 0.007 ×10⁻⁶ cm/s |
| C[S+](C)[O-] [DMSO, dimethyl sulfoxide, reference compound] |  | cell viability [1]: approximately 21% |
| CN[C@H](CC(C)C)C(=O)N[C@H]1C(=O)N[C@@H](CC(N)=O)C(=O)N[C@H]2C(=O)N[C@H]3C(=O)N[C@H](C(=O)N[C@H](C(=O)NCCSSCCn4cc(C(=O)N[C@@H](Cc5ccc(O)cc5)C(=O)NCC(=O)N[C@@H](CCCNC(=N)N)C(=O)N[C@@H](CCCCN)C(=O)N[C@@H](CCCCN)C(=O)N[C@@H](CCCNC(=N)N)C(=O)N[C@@H](CCCNC(=N)N)C(=O)N[C@@H](CCC(N)=O)C(=O)N[C@@H](CCCNC(=N)N)C(=O)N[C@@H](CCCNC(=N)N)C(=O)N[C@@H](CCCNC(=N)N)C(N)=O)nn4)c4cc(O)cc(O)c4-c4cc3ccc4O)[C@H](O)c3ccc(c(Cl)c3)Oc3cc2cc(c3O[C@@H]2O[C@H](CO)[C@@H](O)[C@H](O)[C@H]2O[C@H]2C[C@](C)(N)[C@H](O)[C@H](C)O2)Oc2ccc(cc2Cl)[C@H]1O [compound 7] | 23.8 ± 4.9 |  |
| CN[C@H](CC(C)C)C(=O)N[C@H]1C(=O)N[C@@H](CC(N)=O)C(=O)N[C@H]2C(=O)N[C@H]3C(=O)N[C@H](C(=O)N[C@H](C(=O)O)c4cc(O)cc(O)c4-c4cc3ccc4O)[C@H](O)c3ccc(c(Cl)c3)Oc3cc2cc(c3O[C@@H]2O[C@H](CO)[C@@H](O)[C@H](O)[C@H]2O[C@H]2C[C@](C)(NC(=O)CCOCCOCCOCCOCCn3cc(C(=O)N[C@@H](CCCNC(=N)N)C(=O)N[C@@H](CCCNC(=N)N)C(=O)N[C@@H](CCCNC(=N)N)C(=O)N[C@@H](CCCNC(=N)N)C(=O)N[C@@H](CCCNC(=N)N)C(=O)N[C@@H](CCCNC(=N)N)C(=O)N[C@@H](CCCNC(=N)N)C(=O)N[C@@H](CCCNC(=N)N)C(=O)N[C@@H](CCCNC(=N)N)C(N)=O)nn3)[C@H](O)[C@H](C)O2)Oc2ccc(cc2Cl)[C@H]1O [compound 16] | 37.3 ± 4.8 |  |
